Experimental data taken from PMC10683472, “Deep Learning-Driven Library Design for the De Novo Discovery of Bioactive Thiopeptides” (ACS Central Science, 2023).

Molecular target: T1, TLR10 (Homo sapiens, UniProt Q9BXR5)
T1 sequence (Q9BXR5 20-576): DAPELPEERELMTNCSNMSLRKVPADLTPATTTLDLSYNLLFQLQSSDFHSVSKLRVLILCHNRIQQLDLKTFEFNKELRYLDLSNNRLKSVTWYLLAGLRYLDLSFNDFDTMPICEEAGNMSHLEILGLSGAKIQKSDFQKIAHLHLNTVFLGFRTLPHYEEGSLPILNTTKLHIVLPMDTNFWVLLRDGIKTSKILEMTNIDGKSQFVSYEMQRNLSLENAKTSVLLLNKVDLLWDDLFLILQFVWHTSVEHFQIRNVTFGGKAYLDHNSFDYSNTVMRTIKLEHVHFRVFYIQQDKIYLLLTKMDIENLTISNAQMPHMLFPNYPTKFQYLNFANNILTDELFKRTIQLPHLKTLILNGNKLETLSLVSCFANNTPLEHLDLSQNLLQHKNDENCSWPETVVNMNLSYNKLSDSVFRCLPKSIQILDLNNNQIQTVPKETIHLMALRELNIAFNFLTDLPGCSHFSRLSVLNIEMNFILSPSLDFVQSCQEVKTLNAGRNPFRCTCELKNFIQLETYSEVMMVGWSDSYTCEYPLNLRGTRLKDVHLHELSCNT
Assay: mRNA display affinity selection against TLR10, NGS abundance
Assay type: binding
Set-up: Chimera protein (extracellular domain, amino acid 20-576;); Fc (chimera); purchased R&D system #6619-TR-050
Settings: Top100 selection hits, NGS

| Sequence | Library fraction (TLR10 selection pulldown (+)) | Raw reads (TLR10 selection pulldown (+)) | Library fraction (TLR10 selection pulldown (-)) | Raw reads (TLR10 selection pulldown (-)) |
| --- | --- | --- | --- | --- |
| TIKFPRLQMLAI | 0.00066 | 64 |  |  |
| AIRFSNVLAL | 0.00022 | 21 |  |  |
| VGYVLVKSS | 0.00033 | 32 |  |  |
| TFLGGNVRAWI |  |  | 0.00088 | 105 |
| ALVTQHVNVY |  |  | 0.00162 | 193 |
| SVIFNLLRQVAY | 0.00017 | 17 |  |  |
| SIEGMHVVIV | 0.00022 | 21 |  |  |
| SVSFPLQRKLVF | 0.00065 | 63 |  |  |
| CNPYRGNIGW | 0.006 | 614 | 0.016 | 1871 |
| SKQVYHKQTIVG | 0.00063 | 61 |  |  |
| SRIIYMNQSIRG |  |  | 0.00043 | 51 |
| SIYFEKAEKVAF | 0.00071 | 69 |  |  |
| SLETNSVVWI | 0.00021 | 20 |  |  |
| SMHYRFLCKIAF |  |  | 0.001 | 117 |
| CESCCYVIDFEF |  |  | 0.00343 | 409 |
| SIVFHLTNKMAF | 0.004 | 391 | 0.004 | 462 |
| CIIFVRQNKCAF |  |  | 0.00053 | 63 |
| IGKTYVASS |  |  | 0.00089 | 106 |
| IGRLYIKSS | 0.003 | 304 | 0.00136 | 162 |
| SIMIYCNQKIRG | 0.00114 | 111 |  |  |
| AVEFRLQRAIAY | 0.00163 | 159 | 0.00093 | 111 |

| Sequence | Library fraction (TLR10 selection pulldown (+)) | Raw reads (TLR10 selection pulldown (+)) | Library fraction (TLR10 selection pulldown (-)) | Raw reads (TLR10 selection pulldown (-)) |
| --- | --- | --- | --- | --- |
| STIVFKHQQISG | 0.00018 | 18 |  |  |
| AQMYPIQNKIAF | 0.00064 | 62 | 0.00063 | 75 |
| SILFSIQNKLVL | 0.00021 | 20 |  |  |
| SRTIYRCQSIRG | 0.008 | 777 | 0.00125 | 149 |
| TLHFRRQNKIAY | 0.020 | 1927 | 0.011 | 1314 |
| CLGISNRIVVV | 0.00017 | 17 |  |  |
| IGSVFIKSS | 0.00365 | 356 | 0.003 | 375 |
| STLFFMFQGIRG | 0.00019 | 19 |  |  |
| SICFASQRLLAF |  |  | 0.00149 | 178 |
| AEIHAWGLRI |  |  | 0.00117 | 139 |
| AVEFSNAVVM |  |  | 0.00055 | 66 |
| SIEFRRMRAIAY |  |  | 0.00067 | 80 |
| GLVINKRWYVHL | 0.00058 | 57 | 0.00054 | 64 |
| ANYHGNVPWSC |  |  | 0.00047 | 56 |
| ALELKHVVVV | 0.00049 | 48 |  |  |
| SHYFAFQKKLAF |  |  | 0.00125 | 149 |
| AKLIYRTQGIMG | 0.00211 | 206 |  |  |
| SNSNRYGGLITS | 0.045 | 4431 | 0.005 | 582 |
| SKIIIRGQGIRG |  |  | 0.00238 | 284 |
| RILFPLQNSIAF | 0.00041 | 40 |  |  |
| SIQFKVLQKLAF | 0.00018 | 18 |  |  |

| Sequence | Library fraction (TLR10 selection pulldown (+)) | Raw reads (TLR10 selection pulldown (+)) | Library fraction (TLR10 selection pulldown (-)) | Raw reads (TLR10 selection pulldown (-)) |
| --- | --- | --- | --- | --- |
| SVPFPLQRKLVF | 0.005 | 482 | 0.00118 | 141 |
| RSPIPSWG |  |  | 0.00043 | 51 |
| SILFPHQQKLLF | 0.00044 | 43 |  |  |
| TILFSLQNVRAF | 0.00137 | 134 | 0.0033 | 394 |
| SVCVYQHQGIRG | 0.035 | 3411 | 0.010 | 1149 |
| GCLHGNVPVYY | 0.00224 | 218 | 0.00272 | 324 |
| SMEFVKIPLVIH | 0.00041 | 40 |  |  |
| ASINRYGGNAAS | 0.077 | 7526 | 0.042 | 4957 |
| GTGLNRYGGINY | 0.023 | 2231 | 0.00739 | 882 |
| SLETSHLVIY | 0.00035 | 34 |  |  |
| VGQVLVKSS | 0.00061 | 59 | 0.00086 | 102 |
| SSPNRYGGNVNT | 0.00122 | 119 | 0.00077 | 92 |
| RNPYSGNIAI | 0.00557 | 543 | 0.00067 | 80 |
| STKNQYGGWSPA | 0.00034 | 33 |  |  |
| GYAVGKLLIRV | 0.00026 | 25 |  |  |
| STLIYKLQCILG | 0.0008 | 78 |  |  |
| TLELQSVVLH | 0.00033 | 32 |  |  |
| RMMFHLLNQIAY |  |  | 0.00358 | 427 |
| TMCFTFSKMVAF |  |  | 0.00058 | 69 |
| SITFQTLNKIAY |  |  | 0.006 | 714 |

Other lines, results leading:

| Library fraction (TLR10 selection pulldown (+)) | Raw reads (TLR10 selection pulldown (+)) | Library fraction (TLR10 selection pulldown (-)) | Raw reads (TLR10 selection pulldown (-)) | Sequence |
| --- | --- | --- | --- | --- |
| 0.0005 | 49 |  |  | SNVIYARQHIIG |
| 0.00018 | 18 |  |  | SMLLPMQRVVMF |
|  |  | 0.00153 | 182 | AIYNRYGGNIAS |
| 0.0006 | 58 |  |  | AVIVWAKQGIKG |
|  |  | 0.00144 | 172 | SICFPLQHKCAY |
|  |  | 0.002 | 250 | IGRVWVQSS |
| 0.00071 | 69 | 0.00054 | 64 | SMCVWARQKIVG |
| 0.00021 | 20 |  |  | GDLRGNVCMWL |
| 0.054 | 5293 | 0.012 | 1475 | AVRNKYGGNAAS |
|  |  | 0.006 | 714 | SVVVWHAQPIMG |
| 0.013 | 1282 | 0.018 | 2179 | WPGSMARDSIS |
| 0.00019 | 19 |  |  | AFQRRDDFRWVI |
| 0.00528 | 515 | 0.003 | 351 | TMMFPRLGKVAY |
|  |  | 0.00044 | 52 | SMYFESLNKLAV |
| 0.00018 | 18 |  |  | FRGVLIRSS |
|  |  | 0.00163 | 194 | SLELSRVNVVIH |
|  |  | 0.00142 | 169 | CMSFYLQRKIAI |
| 0.00029 | 28 |  |  | SVMNVFGGNAAT |
|  |  | 0.00072 | 86 | AMKLSARYIAF |
| 0.008 | 778 | 0.007 | 870 | IGRVMIKSS |
| 0.168 | 16419 | 0.077 | 9156 | SNIVWCGQGIIG |
|  |  | 0.0018 | 215 | TILFPLQRRLVV |
|  |  | 0.040 | 4812 | SMLFRLANKIAF |
| 0.00024 | 23 |  |  | WCGATLYSSIS |
| 0.00028 | 27 |  |  | ICFVYVRSS |
| 0.00027 | 26 |  |  | IGKTYVKSC |
| 0.00031 | 30 |  |  | SIETTNMVLL |
| 0.004 | 409 | 0.001 | 116 | STHIYSKQGIRG |
| 0.038 | 3740 | 0.095 | 11292 | TIRFTNQNKIAF |
|  |  | 0.003 | 343 | SVEVWVNQKIRG |
